Measurements taken from the DeepSol protein solubility set.

Test: soluble on expression in E. coli; label from the status in PepcDB or PDB records

Row | Sequence | soluble on expression in E. coli
1 | MSLKGDHAGKDRLIYKLQQTDSSYRYTNGTQGTAWTLIMENPLKGYGYGDDIYHAIYNKRVVDFPSWKFRQSIGPHNEGHHHHHH | soluble
2 | MSLKGENMRVAGLKTDKQGVIFDMDGLLVNSEELYWQANIQAAREYKLGISDDAYLDLVGASVKAMDAFYEKYFPSDEVRQAFVKRTDDLVWEWTDQGKLKLKAGVKEALEYFNDLGLTVGIASNNYKSVVDHNLWVTGCRNSFDFIVTHDEVAEKKLRSKPFPDLYLAAQERSGLGKDQLLIFEDSSMGVEAAENAGIDCVMIPDIKPASAEDRARAQLICPDFFDFLKKISEGHHHHHH | soluble
3 | MSLKGLTVGFLPKAVNNPYFTSADKGGEKALEELGSSYKEVGPSSATDTSGQVSYVNTLTQQQVDAMAVSAQDPGALCTALKQAMKNGIEVVTYDSDTKTGCRNAFVSQASAEDLGRTEVQLLAEQIGYKGEIAILSAAQTATNQNTWIGFMKDELKDPKYKNVKLVKVAYGNDDAQQSFQQTQGLLQEHPKLAGIISPTTVGIKAAAQYLSGSKYKGKVKLTGLGTPNDMRKYVKNGTVEGFELWDPAKLGELAARTAVALSSGQISGKEGETFKAGDMGSYTIGKDGEGHHHHHH | soluble
4 | MSLKGTDRIKVLHMSDFHIDPRYATGSEGNCTSGLCCRRGNPVESLNSNYTVSVPAPRFGYFLCDTPWALGAAAVEAIPVLTGTDEDDAFNMTIFTGDMVSHDPYYELSRDYIEYTETALYDLWKQTLNPTSPLYAAIGNHDSYQQAFDAPSSLPGKLRKQSSWNYEHLAGLWESEGWIDGEVAQKVKTHYGAYSIQHATNLKIITINTDLWYRANIFAYINSTHPDNFGFLKFLAEELQEAEDCNSRAYIVGHVLSGYDGTNPLPGPTDIFYQIIDRYSHVIAGLFWGHTHEDQHMIYYANNGTKMSAETAQNVGWIGPSITPLTDLNSGFRLYEVDAETWDILDAHTWYSNVSTYSSLDGQLEVGPSYVYEYNTRQAYGGNISWPDNAPLNATWWHLVSQDMENDGGALVELYNAHQGKMSTLSPNCTSAECIEAKVCYLRSGSGTLALDNCKTGYGSVQEGHHHHHH | not soluble
5 | MSLKIAVIGCGAMGSIYAAKLAAAGEQVLAVDRHRPSVERINRDGLRVTGPGCDQVVPLRASTGAVDETMDLVVLAVKAADVEAAARQALPMLGPDTAVLTIQNGLGSAETVAGVVGAQRVAVGIASGFGASRVAPGHVHHNAMRAMRFGPYSSLPHARVESIARTWAHAGFDAAAVTDIAAMQWEKLICNVAYSAPCALTGMTVGQVMDDAEMGPVSRAAATEAWSVARASGVAIAVADAVEHVRAFGAQMPDAKPSALLDHEARRVSEIDVINGAVPRQGARVGVDAPVNATLTAVVKSIERRWREGHHHHHH | not soluble
6 | MSLKIKICGLSTKEAVDTAVESGVTHLGFILSPSKRQVAPEKILQITNDVPKTVKKVGVFVDEPIDFVKKAIQVAQLDLVQLHGNEDMNYINQLDISVIKAIRPDQEFKEYEDVILLFDSPQAGSGQAFDWDSLVTSGLKNKFFIAGGLNPENVAAAIQHFPNAYGVDVSSGVETDGIKNLTKIKNFVQNASLASSKQLFIEFLRITKKLNENKIIPYLMGSLAVEQIINFPTNPDDIDIQLKTSDFENFEQLTSLMEKLGYQLIDLHEHKFEKASIHVGFASVETLKNYAGVDYLTIQQERMENGEKYHLPNVEQSLKIYEAAKRDEWRGGKQKDSFIFDELIKEQKRNDNEGHHHHHH | soluble
7 | MSLKIMGFYSQVILPRLLDWSLSDPTLATYRQELLTDVTGEVLEIGFGTGLNLAYYPSHIHKITTVDVNPGMNTIAQKRIDDSGIKVQQLLLSGENLPMADNTFDSVVSTWTLCSIANVEQALQEVYRVLKPGGKFFFLEHGLSNKPNVQVWQNRLTPIQKVLADGCHLNRNIQQLVEQSFDHVELKRFTPENFPDLMAHFYKGCATKKSIEGHHHHHH | not soluble
8 | MSLKISLENVGCASQIGKRKENEDRFDFAQLTDEVLYFAVYDGHGGPAAADFCHTHMEKCIMDLLPKEKNLETLLTLAFLEIDKAFSSHARLSADATLLTSGTTATVALLRDGIELVVASVGDSRAILCRKGKPMKLTIDHTPERKDEKERIKKCGGFVAWNSLGQPHVNGRLAMTRSIGDLDLKTSGVIAEPETKRIKLHHADDSFLVLTTDGINFMVNSQEICDFVNQCHDPNEAAHAVTEQAIQYGTEDNSTAVVVPFGAWGKYKNSEINFSFSRSFASSGRWAEGHHHHHH | soluble
9 | MSLKISSMFTPIRIGSMTVPNRFVVPPMGNNFANTDGTLSETSKAYYLERALGGFGLITIESSVVDKKAKGGPRKPCLYDDSTIDSFKNVIDACHDAGSKVSIQLQHAGSEGNEKVAGHPLKAASAIPASNGRNTPLAITTEEIYELIESYGDAALRAQKAGADAVEVHCAHGYLVSSFISQRTNKRVDEFGGCFENRMRLPRLIIENIRKKVGNSLAILCRINSTDDVPGGIDVHDSSVIAAYLEDCGIDGLHVSRSIHIHDEYMWAPTTLHAGFSAELVTEIKKAVSIPVITVGRYTEPQFAELMVRQGRCDLVAFGRQSLADPEMPNKAKNGKLDEMIPCIACLQGCVPNMFQGKPIACLANPILGHEAELKPAEISKEVLVVGGGVGGMLAAWVCAKRGHNVTLVEKSEVLGGQMRLAAYPPGKGDITNLVRSYISKCNQYGVKICTNTEATVELIKEKSPDVVIIATGATPLVLPIPGINDSGLIHAVDLLDGKKSCGKKVLVVGGGMVGCEVAAFLGEQEHEVTVIELREEVGADVISEHRKFLMNDFENYNIHTITGAKVSKFYDDGVDYLLTDGTEHDLKGFDSVVLAMGSRNYDPLSEVIKEVVKETYIVGDAVKARRALDATKEAFEVALNIEGHHHHHH | soluble
10 | MSLKITEIETLRPEEFPNLLWVLVHTDEGITGLGETFYGACSAEAYIHEWAANRLIGEDPLQIDRHAKRLSGYLGFRSAGAEMRGNSALDIALWDIFGKATGQPIYQLLGGKCRDTIRTYNTCAGPHYVRTAKQQSVANWGLANSVSARYDDLNAFLHRADELALDLLDSGITAMKIWPFDPYAEASDGYYISKSDLKRALEPFEKIRRAVGDKMDVMVEFHSLWNLPPALQIAEALREYETFWHEDPIRMDSLSSLKRYAERSLAPVCASETLATRWGFRDLLETNAAGIVMLDISWCGGLSEARKIASMAEAWHLPVAPHDCTGPVVLTASTHLSLNAPNALVQESVRAFYDGWYRDLVTALPTVKDGHITVPDGPGLGLELMPDIRERLTIAVRNTSDCEGHHHHHH | soluble
11 | MSLKITGNTILITGGGSGIGRALAEAFHQAGNRVIISGRRQAVLDEVTAANPGMASMVMDAGDAEGIRAFAEALVKAHPTLNAVINNAGIMRPEEIAAAPDYLDTAEETIATNLLAPIRLTAALLPHFLKQPAATVLTVSSGLAFVPMVLTPTYSATKSAIHAYSVALREQLKETSVEVIEIVPPYVQTTLMGEGQANDERAMPLEAFISEVMDILKNRPDEKEVVVERCKPLRFAAQNGNFDQVFAMINHMHEGHHHHHH | soluble
12 | MSLKIVDATVLVTCPGRNFVTLRITTDEGVTGLGDATLNGREQAVVAYLREHVVPLLLGTDPHRIEDTWQSLYRGAYWRRGPVTMAAIAAVDVALWDIKAKVANLPLYQLLGGASRERVRTYGHANGRDIPELLDSVRARQAEGYQAIRVQTGVPGLRKVYGVHTGEAIAHNPTRLDQRAVPVVEDWDTPAYLRHLPTVLEAVRNEFGPELPLLHDAHHRLTPLQAAKLGKDVERYDLFWLEDCTPAENQEAFRLVRHHTTTPLAVGEVFNTVFDYQTLIAEQLIDYARSAVTHFGGVSALRKLFDFAAQHQVKSAIHGPEDISPVGMAAAIHLDLAVHNFGIQEYSGHTDATNEVFRHAYTFTDGHLHPGEAPGIGVDYDEELAAAHPYDPAYLPVNRLADGTVHDWEGHHHHHH | not soluble
13 | MSLKIVRILEKDLPITSPGANAVVDFAGLTTSAVAIVTDAFRDGKPLVGYGFGSIGRWSVGGMLRERFIPRILAVEPASLQDETGNIDPFACWNAAMRNEKPGGHGDRATALGALDMALWDLRAKADGVPLYRLLADRYRDGQADEDVAVYAAGGYYQPGSNYRSLQDELKGYIDRGYNEVKIKIGGAPLAEDMRRIEAAIAVLGDGARLAVDANGRFDLETALAYGRAMSDYGLRWYEEPGDPLDFRLMAVLAEHYDGPLATGENLFSSQDARNLLRYGGMRAERDFVQFDCGLAYGLPDYLKVLDIMRRHGWSPRRLHPHGGHQMSLHLAAGLGLGGNESYPGVFQPLGGFADCSKVENGRVRLPDAPGVGLELKSELKTWLDEAFEEGHHHHHH | not soluble
14 | MSLKKATLKDIAEYFGVSISTVSRALSGKPGVSSELREKILEKAREIGYTPNLMALGLKKGNTRTVGVLIPELSANFFADIVSSIEKSLFHLGYRLILCSTDDDPVKEREHLQLLLDQKVEGILSAPVNVKENKDIYNSIINHFKIPVVFFDRLVEGVDSDFVISDNREGMEILVNYLVKHGHKKIGLIHPLRGSFTGEERLKGFLLFKDSIEIREEWIRDGRSSEQGGYESFLRIMTSQERPTAIVIGNNLMTLGVLKAAKELNIKIPEDISLVSFDDAYWNEIFDPPITCVRQDPQQIGLIAATILLDRMKNRKKPSPRMQVVLKVKFVERSSVRTIKTLKDEGHHHHHH | soluble
15 | MSLKKSWLGYAQGYLLYRDLNNHSMTAIRISPETLEQDGTVLLPDCHTEGQNILFTDGEYINQIAASRDDGFVVRIFATSTEPVLQQELQLKLARKCLHACGISLFDLEKDLHIISTGFDEESAILGAGREFALMKTANGKIYYTGKYQSLGIKQGGPSAGKWVELPITKSPKIVHFSVGHDGSHALLVAEDGSVFFTGSASKGEDGESTKSRRQSKPYKPKKIIKMEGKIVVYTACNNGSSSVISKDGELYMFGKDAIYSDSSSLVSDLKGHFVTQVAMGKAHTCVLMKNGEVWTFGVNNKGQCGRDTGAMNQGGKGFGVENMATAMDEDLEEELDEKDEKSMMCPPGMHKWKLEQCMVCTVCGDCTGYGASCVSSGRPDRVPGGICGCGSGESGCAVCGCCKACARELDGQEARQRGILDAVKEMIPLDLLLAVPVPGVNIEEHLQLRQEEKRQRVIRRHRLEDGRGPLVFAGPIFMNHREQALARLRSHPAQLKHKRDKHKDGSGDRGEKDASKITTYPPGSVRFDCELRAVQVSCGFHHSVVLMENGDVYTFGYGQHGQLGHGDVNSRGCPTLVQALPGPSTQVTAGSNHTAVLLMDGQVFTFGSFSKGQLGRPILDIPYWNAKPAPMPNIGSKYGRKATWIGASGDQTFLRIDEALINSHEGHHHHHH | not soluble
16 | MSLKKTVSLCDITITQMLEEDSNQGHLIGDFSKVCALPTVSGKHQDLKYVNPETVAALLSGKFQGLIEKFYVIDCRYPYEYLGGHIQGALNLYSQEELFNFFLKKPIVPLDTQKRIIIVFHCEFSSERGPRMCRCLREEDRSLNQYPALYYPELYILKGGYRDFFPEYMELCEPQSYCPMHHQDHKTELLRCRSQSKVQEEGHHHHHH | soluble
17 | MSLKKVNVTYALLYDKTKEKILMVKNKGKNGSYYTLPGGAVKLGETLEEAVIREVKEETGLHITVNGICYISEAFFEERGHHAIFFNFLGEIIGGETNITRPKEIEEITWMELHIASPHLRIPEHLVNMLKKKETVPYFFNGTIVHQSSEGHHHHHH | not soluble
18 | MSLKLARINLSRDDIHKRLGGGIPYGSIILVEGEESTGKSIIAQRLAYGFLQTAHSVTYTSTQLTTLEFVKQMMSLNYNINKKLLSGTLLYIPVYPLISDNTQKDDFIKKIMETRAFYEKDIVIFDSLSSLIVNDASDIKVNDLMAFFKRIASMNKVIIYTINPKELPESILTLLRSSATMVLKTEIYTFGGNIKNLVKIEKYNLAQGPFQKLMVFRVEPKLGIAVEISSVAEGHHHHHH | soluble
19 | MSLKLIGLLMLSYPLQAAPTDLSRYLETQLKEDAREALNSYLQQQGWSASEVDYQVWLSPAVTHLPPCQQAIRLQAGGQYRQPWGRRPYLAECTEPAWQLRARVEVTLMLPVWVTAQEIQKGQTIRTGDLVEKSLDISRLQRGFVPSSESLVGSKSNRNLRMGQLIGELDLQKAWAIREGEGVLIRAGLDGFSATTRGKALANGAIGDGIKVRNISSGKEIQAWVIEKGEVETRFEGHHHHHH | not soluble
